Results as given in publication PMC7952403 (Nature Communications, 2021).

Molecular target: SARS-CoV-2 RBD-SD1, HEK cell produced (SPR) (Severe acute respiratory syndrome …, UniProt P0DTC2)
Assay: SPR
Details: both partners purified

B1: STE73-2E9 IgG (antibody, V domains shown)
VH: QVQLVQSGAEVKKPGASVKVSCKASGYTFTSYGISWVRQAPGQGLEWMGWISAYNGNTNYAQKLQGRVTMTTDTSTSTAYMELRSLRSDDTAVYYCARGKFDYWGQGTLVTVSS
VL: QSVLTQPPSVSEAPSQRVTISCSGSSSNIGNNAVNWYQQLPGKAPKLLIYYDDVLPSGVSDRFSGSKSGTSASLAISGLQSGDEADYYCAAWDDSLSGVVFGGGTKLTVL
notes: source: Expi293F, transfected, purified (Protein A); copies: 2 + 2
- Kd: 2 nM
